Test results reported in PMC5422739.

Assays:
[1] = biological target: tag free LigB12 (amino acids 1,047–1,119 in LigB) (L. interrogans serovar Pomona); assay: SPR; Biacore 3000; tag free LigB12 immobilised on CM5 (about 1,000 RU); HTE truncates 0 to 5 μM injected in PBS at 30 μL/min, 25°C; 1:1 Langmuir model
[2] = biological target: LigA on the surface of L. biflexa serovar Patoc ligA
[3] = biological target: HTE20N (the first 27 residues of HTE20, amino acids 358–384 of HTE) (human) (UniProt P15502); assay: ELISA; HTE17-20, HTE20, HTE20N, HTE20C or BSA coated (1 μM/well); GST tagged LigB4 or LigB12 titrated 0 to 10 μM, 1 h at 37°C; HRP anti-GST; KD from a saturation fit of OD630
Chain of HTE20N (the first 27 residues of HTE20, amino acids 358–384 of HTE) (human) (P15502 358-384): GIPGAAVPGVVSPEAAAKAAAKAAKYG

[4] = biological target: HTE20 (20th exon of human tropoelastin) (human) (UniProt P15502); assay: ELISA; HTE truncates, HTE20 mutants or BSA coated (1 μM/well, 0.1 M NaHCO3 pH 9.4), blocked with 3% BSA in PBS; 5 μM GST tagged LigB4 or LigB12 applied 1 h at 37°C; HRP anti-GST; fold over BSA or percent of wild-type HTE20
Chain of HTE20 (20th exon of human tropoelastin) (human) (P15502 358-412): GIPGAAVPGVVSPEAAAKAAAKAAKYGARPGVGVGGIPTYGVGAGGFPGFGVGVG

[5] = biological target: HTE18 (18th exon of human tropoelastin) (human); assay: as above
[6] = biological target: HTE20 mutant F381A (human) (UniProt P15502); assay: as above
[7] = biological target: HTE20 mutant F378A (human) (UniProt P15502); assay: as above
[8] = biological target: HTE19-20 (19th to 20th exon of human tropoelastin) (human); assay: as above
[9] = biological target: HTE20 mutant Y371A (human) (UniProt P15502); assay: as above
[10] = biological target: HTE20 mutant R360A (human) (UniProt P15502); assay: as above
[11] = biological target: HTE17-20 (17th to 20th exon of human tropoelastin) (human); assay: as above
Chain of HTE17-20 (17th to 20th exon of human tropoelastin) (human) (P15502 297-438): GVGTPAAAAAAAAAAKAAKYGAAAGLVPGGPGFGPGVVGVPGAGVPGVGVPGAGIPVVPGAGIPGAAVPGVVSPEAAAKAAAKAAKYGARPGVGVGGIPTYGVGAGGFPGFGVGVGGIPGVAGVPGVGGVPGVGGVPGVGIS

histidine tagged HTE20 = histidine tagged HTE20 (UniProt P15502); assay: ELISA; conditions: 10 µM His-HTE20 applied to wells coated with LigB12 construct (1 µM/well); detected by anti-His antibodies; parent: est. 0.73; read off a plot
Chain of histidine tagged HTE20 (P15502 whole entry, looked up): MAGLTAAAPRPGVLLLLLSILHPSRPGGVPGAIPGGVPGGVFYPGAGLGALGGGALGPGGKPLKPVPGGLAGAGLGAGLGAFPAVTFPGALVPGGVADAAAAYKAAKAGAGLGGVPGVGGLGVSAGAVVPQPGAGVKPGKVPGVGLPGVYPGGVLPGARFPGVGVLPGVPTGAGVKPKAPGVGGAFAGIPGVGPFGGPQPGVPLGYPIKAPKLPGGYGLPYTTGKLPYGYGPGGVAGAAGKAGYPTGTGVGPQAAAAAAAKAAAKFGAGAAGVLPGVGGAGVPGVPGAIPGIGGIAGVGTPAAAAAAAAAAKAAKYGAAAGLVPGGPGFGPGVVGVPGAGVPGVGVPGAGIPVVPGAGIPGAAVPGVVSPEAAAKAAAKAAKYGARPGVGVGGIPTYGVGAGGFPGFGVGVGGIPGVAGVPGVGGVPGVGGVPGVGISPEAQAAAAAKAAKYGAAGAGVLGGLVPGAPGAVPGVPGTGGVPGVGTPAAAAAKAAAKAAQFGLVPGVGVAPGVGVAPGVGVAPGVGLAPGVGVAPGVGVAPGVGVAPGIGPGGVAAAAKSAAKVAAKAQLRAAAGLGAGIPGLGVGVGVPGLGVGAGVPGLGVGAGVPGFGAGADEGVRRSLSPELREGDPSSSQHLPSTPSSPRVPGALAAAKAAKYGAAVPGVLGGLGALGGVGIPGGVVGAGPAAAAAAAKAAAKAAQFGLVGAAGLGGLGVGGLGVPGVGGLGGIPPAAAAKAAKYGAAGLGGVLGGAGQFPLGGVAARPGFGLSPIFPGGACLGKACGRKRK

histidine tagged HTE20N = histidine tagged HTE20N (UniProt P15502); assay: ELISA; conditions: 10 µM His-HTE20N applied to wells coated with LigB12 construct (1 µM/well); detected by anti-His antibodies; parent: est. 1.05; read off a plot
Chain of histidine tagged HTE20N (P15502 whole entry, looked up, the tested form may be a part): as the sequence (P15502 whole entry, looked up) above

[12] = biological target: HTE25-27 (25th to 27th exon of human tropoelastin) (human); assay: ELISA; HTE truncates, HTE20 mutants or BSA coated (1 μM/well, 0.1 M NaHCO3 pH 9.4), blocked with 3% BSA in PBS; 5 μM GST tagged LigB4 or LigB12 applied 1 h at 37°C; HRP anti-GST; fold over BSA or percent of wild-type HTE20
[13] = biological target: LigB12-12-5 chimera (L. interrogans serovar Pomona); assay: ELISA; tag-free LigB5/LigB12 and LigB7/LigB10 chimeras and wild-type domains coated (1 μM/well); 5 μM histidine tagged HTE17-20, HTE20 or HTE20N applied; anti-His detection
[14] = biological target: LigB12-5-12 chimera (L. interrogans serovar Pomona); assay: as above

HTE19-20 (19th to 20th exon of human tropoelastin) (domain or fragment)
Kd [1]: 1340 nM | koff [1]: 0.0043 s⁻¹ | kon [1]: 3100 M⁻¹ s⁻¹

HTE17-20 (17th to 20th exon of human tropoelastin) (domain or fragment)
inhibition of the adhesion of LigA-expressing L. biflexa (Patoc ligA) to WI-38 cells after pre-incubation with HTE17-20, 10 to 0.156 μM; ELISA with hamster anti-L. biflexa sera [2]: 61%

GST tagged LigB4 (amino acids 307–403 in LigB) (domain or fragment)
Kd [3]: 860 nM | fold binding over BSA (negative control) [4]: 4.4 fold | fold binding over BSA (negative control) [5]: 2 fold | percent decrease of binding against wild-type HTE20 [6]: 54% | percent of wild-type HTE20 binding [7]: 35% | fold binding over BSA (negative control) [8]: 4.5 fold | percent decrease of binding against wild-type HTE20 [9]: 61% | percent of wild-type HTE20 binding [10]: 32% | fold binding over BSA (negative control) [11]: 5.7 fold

tag free LigB12 (amino acids 1,047–1,119 in LigB) A1065K
response (histidine tagged HTE20): 0.11 OD630 | response (histidine tagged HTE20N): 0.09 OD630

GST tagged LigB12 (amino acids 1,047–1,119 in LigB) (domain or fragment)
Kd [3]: 860 nM | fold binding over BSA (negative control) [4]: 4.4 fold | fold binding over BSA (negative control) [5]: 2 fold | fold binding over BSA (negative control) [12]: 3 fold | percent of wild-type HTE20 binding [6]: 35% | percent decrease of binding against wild-type HTE20 [7]: 62% | fold binding over BSA (negative control) [8]: 4.5 fold | percent of wild-type HTE20 binding [9]: 35% | percent decrease of binding against wild-type HTE20 [10]: 54% | fold binding over BSA (negative control) [11]: 5.7 fold

histidine tagged HTE17-20 (domain or fragment)
percent of wild-type LigB12 binding [13]: 90% | percent of wild-type LigB12 binding [14]: 80%
